Results reported in patent publication US20040143098, “Method for improving plant tolerance to environmental stress” (published 2004).

B1: DRE1 (dsDNA)
DNA 1: GGGGTCGAGAAGAACCGAGACGAAGCGGTCGAG
DNA 2: GGGGCTCGACCGCTTCGTCTCGGTTCTTCTCGA
B2: ABRE A (dsDNA)
DNA 1: TGGAAGCTTCGCGCCACGTGGGCATGAGATCT
DNA 2: TGGAGATCTCATGCCCACGTGGCGCGAAGCTT

Legend:
DBF1 [1] = molecular target: DBF1 (Zea mays); assay: EMSA; same buffer; conditions: tags: pET28 tag (about 31 aa), expressed in E. coli; label: 32P
From the text: (§1) The following DNA oligonucleotides were used in electrophoretic mobility shift assays: DRE2 (SEQ ID NO 4 and 5), DRE2 m (SEQ ID NOs 6 and 7), DRE1 (SEQ ID NO 8 and 9), DRE1/ABRE1 (SEQ ID NOs 10 and 11), ABRE A (SEQ ID Nos12 and 13). The full-length oligonucleotides were purified by denaturing PAGE. Complementary oligonucleotides were annealed and purified in nondenaturing polyacrylamide gel. The double-stranded oligonucleotides were labelled with α³² P-dATP (3000 Ci/mmol, Amersham) by filling in with the Klenow fragment of the DNA polymerase I (Sambrook et al., 1989) and purified on a NAP5 column (Pharmacia), according to the manufacturers instructions. Unlabeled competitor DNA was filled in with nonradioactive nucleotides.
(§2) The radioactive probe was incubated with 400 ng of protein in 20 μl of 1× binding buffer (25 mM HEPES, pH 7.8, 75 mM KCl, 5 mM MgCl_{2,} 0.5 mM EDTA, 0.2 mM DTT and 10% glycerol) and 700 ng poly(dl-dC) for 20 min on ice before loading on a 1× Tris-borate-EDTA, 5% (30:0.8 acrylamide-bis) polyacrylamide gel. Electrophoresis was at 10 V/cm at 4° C. In competition assays the protein was incubated with non-radioactive oligonucleotides in 1× binding buffer, on ice for 10 min prior to adding the radioactive probe and continuing with incubation for 20 min more.

DBF1 [2] = molecular target: DBF1 (Zea mays); assay: EMSA; same buffer; ABRE reported as not bound; conditions: tags: pET28 tag (about 31 aa), expressed in E. coli; label: 32P
From the text: as §1, §2

Chain of DBF1 (Zea mays) (chain, as listed by the source): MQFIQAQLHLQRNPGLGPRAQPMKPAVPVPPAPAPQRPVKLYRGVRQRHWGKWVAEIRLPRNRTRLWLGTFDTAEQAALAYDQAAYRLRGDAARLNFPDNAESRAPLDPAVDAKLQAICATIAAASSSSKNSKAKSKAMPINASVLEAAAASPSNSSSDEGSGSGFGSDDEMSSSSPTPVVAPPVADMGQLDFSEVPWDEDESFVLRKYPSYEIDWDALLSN

Row | Binder | binding result (DBF1 [1]) | binding result (DBF1 [2])
1 | B1 | no binding | –
2 | B2 | – | no binding
